Laboratory results published in the supplement of paper PMC10126150.
± gives the standard deviation of the averaged measurements.

Test system: ATP
Experiment: switch fluorescence ratio, 500 uM ATP over buffer (Cy3 cluster intensity, sum of 5 cycles each) (fold (ratio)); higher = stronger signal-on switching upon ATP binding; sequences stand for … in TCGTCGGCAGCGTCAGATGTGTATAAGAGACAGTTTTTTTTTTTTTTTTTTTTTTTTT…TC
Details: aptamer strand: ATP DNA aptamer (quencher-CACCTGGGGGAGTATTGCGGAGGAAGG + anchor), 100 nM annealed; ATP concentration: 500 uM
How it was run: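 The fluorescence ratio divides summed target-cycle Cy3 intensity by summed buffer-cycle Cy3 intensity for each cluster and is averaged per switch-domain sequence. Cy3-labelled switching-strand clusters on a modified Illumina MiSeq flow-cell were annealed to 100 nM quencher-labelled ATP aptamer, then imaged in selection buffer and again after 15 min with 500 uM ATP at 22 °C. Five such cycles were run, with NaOH stripping and re-annealing between them, and clusters outside 100-1000 RFU were excluded.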
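Note: ATP exposure 15 min at 22 °C before imaging.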

In the case of TTGGGAAAAT, the switch fluorescence ratio is reported as 1.01 ± 0.05.

With CAGCGCTGGA the switch fluorescence ratio was 0.996 ± 0.033.

Sequence GGTGGCATGT has a switch fluorescence ratio of 0.997 ± 0.054.

AAGGATTATG gave a switch fluorescence ratio of 1 ± 0.07.

Work on AAGAAATCTC yielded a switch fluorescence ratio of 1.04 ± 0.11.

Sequence AGATTTCATA has a switch fluorescence ratio of 0.985 ± 0.02.

Sequence CATTATGATG has a switch fluorescence ratio of 1.01 ± 0.013.

GCGGAAAGAA gave a switch fluorescence ratio of 0.962 ± 0.02.

Work on GGCCCGGAGC yielded a switch fluorescence ratio of 1.24 ± 0.013.

CAAGTGATAT showed a switch fluorescence ratio of 1.05 ± 0.014.

With TGAACAGGGG the switch fluorescence ratio was 0.9869 ± 0.0078.

With GGTTCGGATC the switch fluorescence ratio was 0.99316 ± 0.00058.

Work on GACTTTGTCA yielded a switch fluorescence ratio of 1.04 ± 0.025.

ACAGTAGTTA showed a switch fluorescence ratio of 1.046 ± 0.0065.

With ATTCCGGGAG the switch fluorescence ratio was 1.07 ± 0.064.

With TTGTGTTTGG the switch fluorescence ratio was 0.992 ± 0.014.

For TACTTCGAGA, the switch fluorescence ratio was 1.081 ± 0.0099.

With CCATTTTTAC the switch fluorescence ratio was 1.1 ± 0.13.

Work on GATAACGTTT yielded a switch fluorescence ratio of 0.99 ± 0.017.

For AAAGTTCGAG, the switch fluorescence ratio was 0.99 ± 0.021.

GCAATTTTGT showed a switch fluorescence ratio of 1.03 ± 0.015.

With AAGTTTTGAC the switch fluorescence ratio was 1 ± 0.014.

CCTTGGTATT showed a switch fluorescence ratio of 0.998 ± 0.026.

Sequence TCCAGGCTTT has a switch fluorescence ratio of 1.05 ± 0.071.

AGAGCCGGGG gave a switch fluorescence ratio of 0.9777 ± 0.003.

GTTTGCGCTT was tested, and the switch fluorescence ratio was 1.01 ± 0.021.

Sequence TGAGCCGGGA has a switch fluorescence ratio of 1 ± 0.019.

In the case of GCTAAACGAT, the switch fluorescence ratio is reported as 1.03 ± 0.055.

For CATATCTGTT, the switch fluorescence ratio was 1.02 ± 0.024.

Sequence CGTGAAATGT has a switch fluorescence ratio of 0.9863 ± 0.0075.

With AGATTTTTTG the switch fluorescence ratio was 0.9926 ± 0.0073.

For CGAGGGAGCA, the switch fluorescence ratio was 1.01 ± 0.025.

For GGAGTAAAGG, the switch fluorescence ratio was 1.06 ± 0.022.

Work on AACTCACTTT yielded a switch fluorescence ratio of 1.09 ± 0.02.

Work on GGGGTACACT yielded a switch fluorescence ratio of 0.9949 ± 0.0056.

Work on TTTTTATAGC yielded a switch fluorescence ratio of 1.01 ± 0.044.

Work on AAACTAACTT yielded a switch fluorescence ratio of 1.01 ± 0.046.

CTGAGTTACT showed a switch fluorescence ratio of 1.027 ± 0.0025.

Sequence GTTTTAGGCT has a switch fluorescence ratio of 0.973 ± 0.061.

AGCCTTAATT showed a switch fluorescence ratio of 1 ± 0.025.

With TCCATTTATC the switch fluorescence ratio was 0.982 ± 0.04.

CAGATGAGGG showed a switch fluorescence ratio of 1.005 ± 0.0057.

CTATAATAGG was tested, and the switch fluorescence ratio was 0.961 ± 0.01.

Sequence TTTTGTGTGC has a switch fluorescence ratio of 1.02 ± 0.022.

TCACGATTGG was tested, and the switch fluorescence ratio was 1.02 ± 0.02.

For AGCGAATTTT, the switch fluorescence ratio was 0.999 ± 0.017.

GGGGGCATCT was tested, and the switch fluorescence ratio was 1 ± 0.019.

TATTCGTTTT gave a switch fluorescence ratio of 0.989 ± 0.011.

For TATGCGTCGA, the switch fluorescence ratio was 0.979 ± 0.013.

AGAGTGGGGC gave a switch fluorescence ratio of 0.9817 ± 0.0089.

In the case of AAGGGCGTCA, the switch fluorescence ratio is reported as 1.007 ± 0.0022.

Work on AGACAAGGGC yielded a switch fluorescence ratio of 1.06 ± 0.084.

TCGATAAATG was tested, and the switch fluorescence ratio was 1.06 ± 0.033.

Sequence TTACTTGTGG has a switch fluorescence ratio of 0.988 ± 0.024.

CGGGGTCTGA showed a switch fluorescence ratio of 0.953 ± 0.028.

AAGGAGACTA was tested, and the switch fluorescence ratio was 1.02 ± 0.05.

Work on GTTTATGTTA yielded a switch fluorescence ratio of 1.017 ± 0.0018.

In the case of AAGTTTTGGA, the switch fluorescence ratio is reported as 1.02 ± 0.025.

In the case of GGGGGATATT, the switch fluorescence ratio is reported as 1.01 ± 0.037.

Sequence CATGGAGGTC has a switch fluorescence ratio of 1.03 ± 0.026.

With GCCCCGGGGT the switch fluorescence ratio was 1.03 ± 0.056.

With TCTGCCATTT the switch fluorescence ratio was 1.44 ± 0.63.

With ACTAATAGTC the switch fluorescence ratio was 1.02 ± 0.038.

GGTCGATTCG gave a switch fluorescence ratio of 0.961 ± 0.013.

In the case of TTTTGGAGAG, the switch fluorescence ratio is reported as 1.01 ± 0.016.

TGGGCAACCG showed a switch fluorescence ratio of 1.02 ± 0.065.

Work on ACTTTTTTTT yielded a switch fluorescence ratio of 1.01 ± 0.034.

GGGTATGATG gave a switch fluorescence ratio of 1.01 ± 0.044.

Sequence TTTTATAAGA has a switch fluorescence ratio of 1.05 ± 0.075.

GGGTTTTTCC gave a switch fluorescence ratio of 1.1 ± 0.18.

Sequence AGCATATCGT has a switch fluorescence ratio of 1.04 ± 0.033.

For TTCCTTTGGG, the switch fluorescence ratio was 0.964 ± 0.019.

Sequence AATATCGCGG has a switch fluorescence ratio of 1.0264 ± 0.001.

CCGTTGAGTG was tested, and the switch fluorescence ratio was 0.995 ± 0.024.

GACGGGTTAG showed a switch fluorescence ratio of 1.02 ± 0.017.

Work on AAAGGGGATC yielded a switch fluorescence ratio of 0.998 ± 0.017.

Work on CGATTTTCCT yielded a switch fluorescence ratio of 1.01 ± 0.015.

With ACCTGGCAAA the switch fluorescence ratio was 1.09 ± 0.043.

AAACTGAAAT showed a switch fluorescence ratio of 1.76 ± 1.1.

GCGTCTATTA was tested, and the switch fluorescence ratio was 0.995 ± 0.012.

Sequence TTCCATGGTC has a switch fluorescence ratio of 1.02 ± 0.014.

Sequence GGTAGAATTA has a switch fluorescence ratio of 0.979 ± 0.032.

In the case of TCATAGATTT, the switch fluorescence ratio is reported as 0.988 ± 0.013.

For TGGGTTTCCT, the switch fluorescence ratio was 0.987 ± 0.017.

With AGAACTGTGA the switch fluorescence ratio was 0.9889 ± 0.0037.

With ACGTGGGGGG the switch fluorescence ratio was 1.04 ± 0.082.

CTGGTAAGGA gave a switch fluorescence ratio of 1.017 ± 0.0031.

In the case of GCAGGAGGAA, the switch fluorescence ratio is reported as 0.991 ± 0.02.

GTTTTCTCAT was tested, and the switch fluorescence ratio was 0.989 ± 0.029.

In the case of CGAGGGCGGG, the switch fluorescence ratio is reported as 0.999 ± 0.016.

Sequence TTATGTTAGG has a switch fluorescence ratio of 0.97498 ± 0.00083.

TTCTTTTGTT was tested, and the switch fluorescence ratio was 1 ± 0.025.

Work on ATTCGTGGG yielded a switch fluorescence ratio of 1.01 ± 0.017.

Sequence GCGCGAGTAG has a switch fluorescence ratio of 1.03 ± 0.028.

For ATGATAGTAC, the switch fluorescence ratio was 1.04 ± 0.017.

ATGGTCAGGC gave a switch fluorescence ratio of 0.973 ± 0.019.

GCGGCTTCGT showed a switch fluorescence ratio of 1.02 ± 0.07.

GTTGGTGCGG showed a switch fluorescence ratio of 0.999 ± 0.034.

Sequence TGCGGTCACT has a switch fluorescence ratio of 0.9964 ± 0.0056.

In the case of TTTTCATAAG, the switch fluorescence ratio is reported as 1 ± 0.011.

Sequence TCAGGGGCGG has a switch fluorescence ratio of 1.04 ± 0.096.

CATAATGGTC was tested, and the switch fluorescence ratio was 0.986 ± 0.041.

Sequence ATTTATTGGT has a switch fluorescence ratio of 1.007 ± 0.0062.

GTGGGTTGTT showed a switch fluorescence ratio of 0.9719 ± 0.005.

Work on ACAGAAGTCT yielded a switch fluorescence ratio of 1.03 ± 0.096.

ATACAACCTG was tested, and the switch fluorescence ratio was 1.106 ± 0.0065.

ATATATCGTG showed a switch fluorescence ratio of 0.995 ± 0.019.

Work on GCCGTCTGGC yielded a switch fluorescence ratio of 1.02 ± 0.045.

ACGCCACTGT showed a switch fluorescence ratio of 1.71 ± 0.038.

CAAACATTTT was tested, and the switch fluorescence ratio was 0.9795 ± 0.0044.

TCACTAGATC showed a switch fluorescence ratio of 0.998 ± 0.021.

TTAGAGAGTG was tested, and the switch fluorescence ratio was 0.984 ± 0.044.

Sequence GAAGCGGGGG has a switch fluorescence ratio of 1.05 ± 0.02.

For ATGTTTCTAT, the switch fluorescence ratio was 0.982 ± 0.027.

GCCGTTACTG showed a switch fluorescence ratio of 1.05 ± 0.031.

GCGGATTGAA was tested, and the switch fluorescence ratio was 0.988 ± 0.044.

With ATTTGGGGGA the switch fluorescence ratio was 0.999 ± 0.029.

In the case of AAGATGTTGG, the switch fluorescence ratio is reported as 1.01 ± 0.04.

TAGAAATTTC was tested, and the switch fluorescence ratio was 1.02 ± 0.036.

ACCTGTTTGT gave a switch fluorescence ratio of 1.01 ± 0.017.

GCAAGTTGGT gave a switch fluorescence ratio of 1 ± 0.017.

With TTGTGCTGTA the switch fluorescence ratio was 1.02 ± 0.013.

In the case of GTGGGAAGGT, the switch fluorescence ratio is reported as 0.994 ± 0.038.

Work on GTTAATTAGC yielded a switch fluorescence ratio of 1.03 ± 0.041.

Sequence ACAGAAGATG has a switch fluorescence ratio of 1.003 ± 0.0087.

With GTGAGGGGGC the switch fluorescence ratio was 0.993 ± 0.1.

TGTTTTGGCG gave a switch fluorescence ratio of 0.959 ± 0.018.

For TAAAGGTCAT, the switch fluorescence ratio was 0.9959 ± 0.0018.

For TATAGCATCT, the switch fluorescence ratio was 1.047 ± 0.01.

ATGTTGAGCC was tested, and the switch fluorescence ratio was 0.9874 ± 0.0022.

For ATTAATGGCG, the switch fluorescence ratio was 0.9554 ± 0.009.

In the case of TAAAAGGACT, the switch fluorescence ratio is reported as 1.03 ± 0.034.

TCAATCGGAA gave a switch fluorescence ratio of 1.06 ± 0.014.

GGGTTATGCG gave a switch fluorescence ratio of 1.04 ± 0.027.

Work on GCGGGTATGA yielded a switch fluorescence ratio of 0.964 ± 0.052.

ATCGGGGTCG showed a switch fluorescence ratio of 1.05 ± 0.038.

AGGAAGTGGG gave a switch fluorescence ratio of 0.959 ± 0.028.

In the case of AAAGTTCGAA, the switch fluorescence ratio is reported as 0.977 ± 0.035.

GGCGTTCATG showed a switch fluorescence ratio of 0.9968 ± 0.0081.

GCATTGAGGG showed a switch fluorescence ratio of 1.04 ± 0.047.

In the case of CATTTTTATC, the switch fluorescence ratio is reported as 0.992 ± 0.012.

Sequence ATTGCAATGG has a switch fluorescence ratio of 1.6 ± 0.034.

TTACGTCATA showed a switch fluorescence ratio of 1.67 ± 0.95.

Sequence TTTGTAGGAT has a switch fluorescence ratio of 1.04 ± 0.014.

TGATGCTTT gave a switch fluorescence ratio of 1.01 ± 0.077.

TTTTATGCTA gave a switch fluorescence ratio of 1 ± 0.054.

In the case of TCGTTTATCA, the switch fluorescence ratio is reported as 0.9771 ± 0.0073.

Sequence TCAAAGGTAC has a switch fluorescence ratio of 1.04 ± 0.0092.

Work on GGCTCACTAG yielded a switch fluorescence ratio of 1.01 ± 0.05.

CTGTCTGCCG showed a switch fluorescence ratio of 1.01 ± 0.017.

GTTGTAGTTG gave a switch fluorescence ratio of 0.98387 ± 0.00037.

In the case of AGGAGCGGTT, the switch fluorescence ratio is reported as 1.02 ± 0.061.

Sequence GCGAGCAGTA has a switch fluorescence ratio of 1.01 ± 0.028.

TTTGGGTTAA gave a switch fluorescence ratio of 1.13 ± 0.29.

GATGCAGCGA gave a switch fluorescence ratio of 1.107 ± 0.011.

CGATTAGGGG gave a switch fluorescence ratio of 1 ± 0.012.

With ATTTTAAAGA the switch fluorescence ratio was 1.009 ± 0.0062.
